{
  "source": "paper PMC6098094",
  "experiment_in_all_cases": "two-hybrid; quantitative yeast two-hybrid, para-nitrophenyl-alpha-galactoside assay; interaction strength as percentage of wildtype GAL4BD-UBXD1; three independent experiments with five yeast transformands per condition",
  "key": {"Gal4BD-UBXD1ΔPUB": {"molecular_target": "Gal4BD-UBXD1ΔPUB"}, "Gal4BD-UBXD1ΔUBX": {"molecular_target": "Gal4BD-UBXD1ΔUBX"}, "Gal4BD-UBXD1ΔVIM": {"molecular_target": "Gal4BD-UBXD1ΔVIM"}},
  "data": [
    {"substance": "Gal4AD-p97 (from UniProt P55072 1-806) (natural protein)", "values": [
      {"measurement": "interaction strength as percentage of wildtype GAL4BD-UBXD1 (% of wildtype GAL4BD-UBXD1)", "setting": "Gal4BD-UBXD1ΔPUB", "value": 13.8},
      {"measurement": "interaction strength as percentage of wildtype GAL4BD-UBXD1 (% of wildtype GAL4BD-UBXD1)", "setting": "Gal4BD-UBXD1ΔUBX", "value": 29.2},
      {"measurement": "interaction strength as percentage of wildtype GAL4BD-UBXD1 (% of wildtype GAL4BD-UBXD1)", "setting": "Gal4BD-UBXD1ΔVIM", "value": 8.1}
    ]}
  ]
}
